The supplement of paper PMC9112550, “Optimization of the antimicrobial peptide Bac7 by deep mutational scanning” (BMC Biology, 2022)

Test system: Escherichia coli TOP10
Test: shrunken log2 fold change of peptide-encoding DNA abundance (4.5 h post-induction vs induction); higher = less antimicrobial activity (less host growth inhibition)
Conditions: time post-induction: 4.5 h; library: site-saturation at positions 5, 18, 19, 20
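Also: peptides expressed intracellularly from a pBAD plasmid library in pooled LB shake-flask culture, induced with 0.3% L-arabinose, DNA abundance read by NGS, three biological replicates, DESeq2 with apeglm shrinkage.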

Sequence	shrunken log2 fold change
RRIRERPPRLPRPRPRPEIFPRP	-0.00264
RRIRDRPPRLPRPRPRPQKNPRP	-0.431
RRIRFRPPRLPRPRPRPDQLPRP	0.22
RRIRIRPPRLPRPRPRPFCGPRP	-0.228
RRIRQRPPRLPRPRPRPKTHPRP	-0.389
RRIRMRPPRLPRPRPRPIGWPRP	0.599
RRIRMRPPRLPRPRPRPWMIPRP	-0.136
RRIRFRPPRLPRPRPRPRHNPRP	-0.275
RRIRYRPPRLPRPRPRPSTNPRP	-0.757
RRIRKRPPRLPRPRPRPQWRPRP	0.309
RRIRWRPPRLPRPRPRPQGPPRP	1.32
RRIRWRPPRLPRPRPRPVWFPRP	0.563
RRIRNRPPRLPRPRPRPFKDPRP	-0.327
RRIRRRPPRLPRPRPRPSMMPRP	-0.216
RRIRMRPPRLPRPRPRPERMPRP	1.35
RRIRVRPPRLPRPRPRPPATPRP	0.18
RRIRSRPPRLPRPRPRPQVHPRP	-0.012
RRIRCRPPRLPRPRPRPSKIPRP	-0.597
RRIRIRPPRLPRPRPRPHELPRP	-0.156
RRIRPRPPRLPRPRPRPGLDPRP	0.0198
RRIRWRPPRLPRPRPRPPDIPRP	0.238
RRIRDRPPRLPRPRPRPWIWPRP	0.188
RRIRHRPPRLPRPRPRPQSLPRP	-0.00783
RRIRGRPPRLPRPRPRPPKIPRP	0.835
RRIRMRPPRLPRPRPRPTVAPRP	0.269

Sequence	shrunken log2 fold change
RRIRPRPPRLPRPRPRPSDDPRP	-0.0663
RRIRWRPPRLPRPRPRPWATPRP	0.168
RRIRMRPPRLPRPRPRPDAFPRP	1.47
RRIRKRPPRLPRPRPRPRDEPRP	-0.0461
RRIRFRPPRLPRPRPRPTCQPRP	-0.0887
RRIRQRPPRLPRPRPRPNVFPRP	-0.14
RRIRHRPPRLPRPRPRPRHAPRP	0.164
RRIRYRPPRLPRPRPRPINMPRP	-0.281
RRIRARPPRLPRPRPRPHLLPRP	-0.0598
RRIRRRPPRLPRPRPRPQPIPRP	0.206
RRIRYRPPRLPRPRPRPMVIPRP	-0.0231
RRIRKRPPRLPRPRPRPYVMPRP	-0.223
RRIRLRPPRLPRPRPRPHAPPRP	0.304
RRIRDRPPRLPRPRPRPTMNPRP	0.116
RRIRIRPPRLPRPRPRPDQLPRP	-0.172
RRIRYRPPRLPRPRPRPQAAPRP	-0.195
RRIRMRPPRLPRPRPRPMDEPRP	2.34
RRIRERPPRLPRPRPRPRQHPRP	-0.0319
RRIRARPPRLPRPRPRPSMTPRP	0.2
RRIRLRPPRLPRPRPRPNVWPRP	0.346
RRIRSRPPRLPRPRPRPANVPRP	0.218
RRIRTRPPRLPRPRPRPSGYPRP	-0.256
RRIRRRPPRLPRPRPRPVASPRP	0.0932
RRIRHRPPRLPRPRPRPEELPRP	-0.00776
RRIRERPPRLPRPRPRPPSIPRP	-0.0171

Sequence	shrunken log2 fold change
RRIRWRPPRLPRPRPRPDISPRP	-0.135
RRIRLRPPRLPRPRPRPIKWPRP	-0.412
RRIRCRPPRLPRPRPRPERVPRP	0.361
RRIRQRPPRLPRPRPRPKGGPRP	0.0347
RRIRVRPPRLPRPRPRPTCMPRP	-0.125
RRIRDRPPRLPRPRPRPSIRPRP	-0.103
RRIRWRPPRLPRPRPRPPSSPRP	0.778
RRIRRRPPRLPRPRPRPCVIPRP	-0.0371
RRIRIRPPRLPRPRPRPSMLPRP	-0.422
RRIRFRPPRLPRPRPRPSSFPRP	-0.227
RRIRFRPPRLPRPRPRPKLDPRP	0.0288
RRIRVRPPRLPRPRPRPRLQPRP	-0.000502
RRIRTRPPRLPRPRPRPNHRPRP	-0.209
RRIRRRPPRLPRPRPRPQIEPRP	0.694
RRIRIRPPRLPRPRPRPDWQPRP	-0.00422
RRIRCRPPRLPRPRPRPMKLPRP	-0.0356
RRIRYRPPRLPRPRPRPRHLPRP	-0.142
RRIRNRPPRLPRPRPRPRMCPRP	0.138
RRIRKRPPRLPRPRPRPISFPRP	-0.1
RRIRWRPPRLPRPRPRPMWKPRP	-0.0109
RRIRIRPPRLPRPRPRPFKEPRP	-0.263
RRIRVRPPRLPRPRPRPEIIPRP	-0.0128
RRIRARPPRLPRPRPRPPQIPRP	0.599
RRIRIRPPRLPRPRPRPYTVPRP	-1.32
RRIRMRPPRLPRPRPRPWHTPRP	0.0985

Sequence	shrunken log2 fold change
RRIRLRPPRLPRPRPRPFSSPRP	-0.000451
RRIRSRPPRLPRPRPRPDLLPRP	-0.0424
RRIRFRPPRLPRPRPRPFMHPRP	-0.147
RRIRYRPPRLPRPRPRPVPQPRP	-0.0271
RRIRWRPPRLPRPRPRPRAPPRP	0.84
RRIRVRPPRLPRPRPRPVCNPRP	-0.0396
RRIRCRPPRLPRPRPRPLKHPRP	-0.584
RRIRVRPPRLPRPRPRPHSKPRP	-0.496
RRIRHRPPRLPRPRPRPYNRPRP	-0.0244
RRIRMRPPRLPRPRPRPFLQPRP	-0.0339
RRIRHRPPRLPRPRPRPWFGPRP	-0.0191
RRIRGRPPRLPRPRPRPCDHPRP	0.135
RRIRLRPPRLPRPRPRPAVFPRP	0.142
RRIRDRPPRLPRPRPRPFNQPRP	-0.733
RRIRTRPPRLPRPRPRPGHSPRP	0.0834
RRIRNRPPRLPRPRPRPHRYPRP	-0.345
RRIRKRPPRLPRPRPRPINKPRP	-0.328
RRIRERPPRLPRPRPRPGKYPRP	-0.17
RRIRWRPPRLPRPRPRPTLNPRP	0.139
RRIRDRPPRLPRPRPRPHHNPRP	-0.562
RRIRIRPPRLPRPRPRPGRDPRP	0.0442
RRIRQRPPRLPRPRPRPPVNPRP	-0.0759
RRIRPRPPRLPRPRPRPLVKPRP	-0.0409
RRIRARPPRLPRPRPRPQWHPRP	-0.0862
RRIRPRPPRLPRPRPRPPQLPRP	0.378

Sequence	shrunken log2 fold change
RRIRVRPPRLPRPRPRPKFNPRP	-0.42
RRIRCRPPRLPRPRPRPDGDPRP	0.0934
RRIRMRPPRLPRPRPRPTFVPRP	0.134
RRIRQRPPRLPRPRPRPAGSPRP	0.0285
RRIRCRPPRLPRPRPRPGMMPRP	-0.389
RRIRPRPPRLPRPRPRPIIYPRP	-0.256
RRIRSRPPRLPRPRPRPQPMPRP	0.128
RRIRIRPPRLPRPRPRPWSSPRP	-0.1
RRIRMRPPRLPRPRPRPKLPPRP	1.13
RRIRFRPPRLPRPRPRPFTHPRP	-0.296
RRIRWRPPRLPRPRPRPNFRPRP	0.298
RRIRVRPPRLPRPRPRPSKIPRP	-0.0852
RRIRYRPPRLPRPRPRPRYGPRP	-0.678
RRIRVRPPRLPRPRPRPSCHPRP	0.292
RRIRPRPPRLPRPRPRPLFCPRP	-0.0561
RRIRTRPPRLPRPRPRPRCLPRP	-0.0645
RRIRARPPRLPRPRPRPTAYPRP	0.223
RRIRYRPPRLPRPRPRPQHSPRP	-0.978
RRIRGRPPRLPRPRPRPDYEPRP	0.19
RRIRQRPPRLPRPRPRPGYHPRP	-0.108
RRIRKRPPRLPRPRPRPRPIPRP	0.824
RRIRMRPPRLPRPRPRPSNNPRP	-0.0389
RRIRCRPPRLPRPRPRPGEQPRP	0.262
RRIRWRPPRLPRPRPRPPSLPRP	0.115
RRIRTRPPRLPRPRPRPWIHPRP	-0.636
